Measurements from US20200095598A1 (COMMONWEALTH SCIENTIFIC AND INDUSTRIAL RESEARCH ORGANISATION, published 2020).
Where two headings read alike, the source gives them in different places.

Key:
[1] = target: pFAγ::NifD::FLAG fusion polypeptide (Klebsiella pneumoniae (NifD part); Arabidopsis thaliana (pFAγ MTP)); assay: cell-based or functional assay
[2] = test system: pFAγ::NifD::HA fusion polypeptide
[3] = target: NifD polypeptide encoded by pMIT2.1 (wild-type nitrogenase gene cluster) in E. coli, P00466
[4] = target: T1, FAγ^51::NifD::HA fusion polypeptide (constructs SN6, SN7, SN8)
T1 chain: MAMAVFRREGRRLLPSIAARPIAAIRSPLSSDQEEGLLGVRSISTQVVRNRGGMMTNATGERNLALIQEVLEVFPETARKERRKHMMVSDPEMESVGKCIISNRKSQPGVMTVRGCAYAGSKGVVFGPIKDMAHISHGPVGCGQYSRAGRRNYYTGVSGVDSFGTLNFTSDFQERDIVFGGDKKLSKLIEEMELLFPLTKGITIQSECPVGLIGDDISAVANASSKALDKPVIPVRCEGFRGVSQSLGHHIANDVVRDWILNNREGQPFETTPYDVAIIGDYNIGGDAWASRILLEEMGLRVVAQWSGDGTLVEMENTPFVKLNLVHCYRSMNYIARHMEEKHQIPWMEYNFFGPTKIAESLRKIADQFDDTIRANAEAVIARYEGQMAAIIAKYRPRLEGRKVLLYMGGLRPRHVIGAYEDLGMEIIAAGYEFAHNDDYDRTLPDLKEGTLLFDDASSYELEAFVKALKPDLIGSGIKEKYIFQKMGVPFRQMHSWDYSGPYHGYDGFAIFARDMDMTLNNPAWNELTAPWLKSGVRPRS

[5] = target: T2, pFAγ::NifD::HA fusion polypeptide
T2 chain: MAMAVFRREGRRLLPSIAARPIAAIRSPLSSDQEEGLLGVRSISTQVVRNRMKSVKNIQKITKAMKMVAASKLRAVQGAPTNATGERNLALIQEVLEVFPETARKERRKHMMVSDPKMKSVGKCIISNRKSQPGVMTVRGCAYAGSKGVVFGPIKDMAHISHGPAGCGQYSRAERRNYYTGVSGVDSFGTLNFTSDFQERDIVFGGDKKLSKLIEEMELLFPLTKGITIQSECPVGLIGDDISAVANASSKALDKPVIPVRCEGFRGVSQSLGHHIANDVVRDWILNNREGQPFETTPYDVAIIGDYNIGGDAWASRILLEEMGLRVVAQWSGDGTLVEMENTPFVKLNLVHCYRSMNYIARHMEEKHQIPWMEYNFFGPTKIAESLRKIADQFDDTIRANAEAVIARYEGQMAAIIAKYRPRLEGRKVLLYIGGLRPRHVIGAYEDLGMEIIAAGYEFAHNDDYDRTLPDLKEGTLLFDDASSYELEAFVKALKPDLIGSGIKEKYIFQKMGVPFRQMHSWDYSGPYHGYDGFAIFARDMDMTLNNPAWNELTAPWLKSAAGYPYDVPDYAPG

[6] = target: the molecule itself; assay: SDS-PAGE and Western blot of N. benthamiana leaf extracts; self-association (band at about double the molecular weight)

Chain of NifD polypeptide encoded by pMIT2.1 (wild-type nitrogenase gene cluster) in E. coli, P00466 (P00466 whole entry, looked up, the tested form may be a part): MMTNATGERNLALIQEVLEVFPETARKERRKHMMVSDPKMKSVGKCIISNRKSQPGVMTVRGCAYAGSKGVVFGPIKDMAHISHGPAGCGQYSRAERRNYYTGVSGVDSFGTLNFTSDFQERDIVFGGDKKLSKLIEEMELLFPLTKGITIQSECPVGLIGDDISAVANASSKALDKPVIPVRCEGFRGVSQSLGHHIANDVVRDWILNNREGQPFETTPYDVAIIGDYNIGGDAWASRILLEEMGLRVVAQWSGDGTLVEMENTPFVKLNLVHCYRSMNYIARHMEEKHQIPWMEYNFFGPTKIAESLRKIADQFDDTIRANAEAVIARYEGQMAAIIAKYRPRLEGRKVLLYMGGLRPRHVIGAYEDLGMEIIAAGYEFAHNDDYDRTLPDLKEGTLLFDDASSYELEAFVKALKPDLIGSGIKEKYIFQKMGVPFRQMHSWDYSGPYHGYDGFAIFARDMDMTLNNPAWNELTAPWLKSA

## pFAγ::NifK fusion polypeptide (pRA25), lacking any C-terminal extension (enzyme)
[1]
  level of NifD::FLAG accumulation (band intensity normalised to a background band, Western blot anti-FLAG), co-expression with pRA25 against pRA11 (NifK with C-terminal extension): 50%

## pFAγ::NifH::HA fusion polypeptide
[2]
  extent of MTP processing of NifD::HA on co-expression (Western blot): the extent of processing of the MTP sequence fused to NifD::HA was increased in the presence of the NifK and NifH polypeptides

B1: modified NifK polypeptide having a 9 amino acid C-terminal extension (YPYDVPDYA), encoded by modified pMIT2.1 (protein)
chain: MSQTIDKINSCYPLFEQDEYQELFRNKRQLEEAHDAQRVQEVFAWTTTAEYEALNFRREALTVDPAKACQPLGAVLCSLGFANTLPYVHGSQGCVAYFRTYFNRHFKEPIACVSDSMTEDAAVFGGNNNMNLGLQNASALYKPEIIAVSTTCMAEVIGDDLQAFIANAKKDGFVDSSIAVPHAHTPSFIGSHVTGWDNMFEGFAKTFTADYQGQPGKLPKLNLVTGFETYLGNFRVLKRMMEQMAVPCSLLSDPSEVLDTPADGHYRMYSGGTTQQEMKEAPDAIDTLLLQPWQLLKSKKVVQEMWNQPATEVAIPLGLAATDELLMTVSQLSGKPIADALTLERGRLVDMMLDSHTWLHGKKFGLYGDPDFVMGLTRFLLELGCEPTVILSHNANKRWQKAMNKMLDASPYGRDSEVFINCDLWHFRSLMFTRQPDFMIGNSYGKFIQRDTLAKGKAFEVPLIRLGFPLFDRHHLHRQTTWGYEGAMNIVTTLVNAVLEKLDSDTSQLGKTDYSFDLVRYPYDVPDYA
[3]
  ethylene production in acetylene reduction assay (E. coli DH5α, modified pMIT2.1 + pN249): the 9-amino acid C-terminal extension added to NifK completely abolished ethylene production

B2: pFAγ::NifK fusion polypeptide (pRA25), lacking any C-terminal extension (protein)
chain: MAMAVFRREGRRLLPSIAARPIAAIRSPLSSDQEEGLLGVRSISTQVVRNRMKSVKNIQKITKAMKMVAASKLRAVQGAPSQTIDKINSCYPLFEQDEYQELFRNKRQLEEAHDAQRVQEVFAWTTTAEYEALNFRREALTVDPAKACQPLGAVLCSLGFANTLPYVHGSQGCVAYFRTYFNRHFKEPIACVSDSMTEDAAVFGGNNNMNLGLQNASALYKPEIIAVSTTCMAEVIGDDLQAFIANAKKDGFVDSSIAVPHAHTPSFIGSHVTGWDNMFEGFAKTFTADYQGQPGKLPKLNLVTGFETYLGNFRVLKRMMEQMAVPCSLLSDPSEVLDTPADGHYRMYSGGTTQQEMKEAPDAIDTLLLQPWQLLKSKKVVQEMWNQPATEVAIPLGLAATDELLMTVSQLSGKPIADALTLERGRLVDMMLDSHTWLHGKKFGLYGDPDFVMGLTRFLLELGCEPTVILSHNANKRWQKAMNKMLDASPYGRDSEVFINCDLWHFRSLMFTRQPDFMIGNSYGKFIQRDTLAKGKAFEVPLIRLGFPLFDRHHLHRQTTWGYEGAMNIVTTLVNAVLEKLDSDTSQLGKTDYSFDLVR
[4]
  NifD::HA abundance and ratio of processed to unprocessed NifD on co-infiltration (SDS-PAGE, Western blot anti-HA): the addition of pRA25 in each case greatly enhanced NifD abundance, particularly for the combination of SN7 and pRA25. Most importantly, the ratio of processed to unprocessed NifD was enhanced by the addition of pRA25.
  amount of the approximately 48 kDa NifD::HA degradation product on co-expression (Western blot anti-HA): the amount of this product was also enhanced by co-expression of pRA25 (NifK)
[5]
  extent of MTP processing of NifD::HA on co-expression (Western blot): the extent of processing of the MTP sequence fused to NifD::HA was increased in the presence of the NifK and NifH polypeptides

B3: pFAγ::NifS::HA fusion polypeptide (enzyme)
chain: ISTQVVRNRMKSVKNIQKITKAMKMVAASKLRAVQGAPKQVYLDNNATTRLDPMVLEAMMPFLTDFYGNPSSIHDFGIPAQAALERAHQQAAALLGAEYPSEIIFTSCATEATATAIASAIALLPERREIITSVVEHPATLAACEHMEREGYRIHRIAVDGEGALDMAQFRAALSPRVALVSVMWANNETGVLFPIGEMAELAHEQGALFHCDAVQVVGKIPIAVGQTRIDMLSCSAHKFHGPKGVGCLYLRRGTRFRPLLRGGHQEYGRRAGTENICGIVGMGAACELANIHLPGMTHIGQLRNRLEHRLLASVPSVMVMGGGQPAVPGTVNLAFEFIEGEAILLLLNQAGIAASSGSACTSGSLEPSHVMRAMNIPYTAAHGTIRFSLSRYTREKEIDYVVATLPPIIDRLRALSPYWQNGKPRPADAVFTPVYGAGGGGGYPYDVPDYAPG
notes: Expressed in N. benthamiana; also called pRA16
[6]
  binding result: binds

B4: pFAγ::NifB::HA fusion polypeptide (enzyme)
chain: ISTQVVRNRMKSVKNIQKITKAMKMVAASKLRAVQGAPTSCSSFSGGKACRPADDSALTPLVADKAAAHPCYSRHGHHRFARMHLPVAPACNLQCNYCNRKFDCSNESRPGVSSTLLTPEQAVVKVRQVAQAIPQLSVVGIAGPGDPLANIARTFRTLELIREQLPDLKLCLSTNGLVLPDAVDRLLDVGVDHVTVTINTLDAEIAAQIYAWLWLDGERYSGREAGEILIARQLEGVRRLTAKGVLVKINSVLIPGINDSGMAGVSRALRASGAFIHNIMPLIARPEHGTVFGLNGQPEPDAETLAATRSRCGEVMPQMTHCHQCRADAIGMLGEDRSQQFTQLPAPESLPAWLPILHQRAQLHASIATRGESEADDACLVAVASSRGDVIDCHFGHADRFYIYSLSAAGMVLVNERFTPKYCQGRDDCEPQDNAARFAAILELLADVKAVFCVRIGHTPWQQLEQEGIEPCVDGAWRPVSEVLPAWWQQRRGSWPAALPHKGVAAGGGGGYPYDVPDYAPG
notes: Expressed in N. benthamiana; also called pRA03
[6]
  binding result: binds

B5: pFAγ::NifY::HA fusion polypeptide (other)
chain: ISTQVVRNRMKSVKNIQKITKAMKMVAASKLRAVQGAPSDNDTLFWRMLALFQSLPDLQPAQIVDWLAQESGETLTPERLATLTQPQLAASFPSATAVMSPARWSRVMASLQGALPAHLRIVRPAQRTPQLLAAFCSQDGLVINGHFGQGRLFFIYAFDEQGGWLYDLRRYPSAPHQQEANEVRARLIEDCQLLFCQEIGGPAAARPIRHRIHPMKAQPGTTIQAQCEAINTLLAGRLPPWLAKRLNRDNPLEERVFAGGGGGYPYDVPDYAPG
notes: Expressed in N. benthamiana; also called pRA12
[6]
  binding result: binds
